The values that follow come from PMC5498468, “Exposure to the Epstein–Barr Viral Antigen Latent Membrane Protein 1 Induces Myelin-Reactive Antibodies In Vivo” (Frontiers in Immunology, 2017).

The target in the test is T1, Bovine myelin basic protein (MBP) (bovine, UniProt P02687 1-169).
T1 construct: Myelin basic protein, bovine
In words: ELISA + other: WB (methods) or immunoprecipitation (results); synthetic peptides with C-terminal Lys-biotin tested for binding of MBP and LMP1; one grade a pair for the two assays. The following applies: both partners purified.

No end group written: not given here.

T1 sequence (P02687 whole entry): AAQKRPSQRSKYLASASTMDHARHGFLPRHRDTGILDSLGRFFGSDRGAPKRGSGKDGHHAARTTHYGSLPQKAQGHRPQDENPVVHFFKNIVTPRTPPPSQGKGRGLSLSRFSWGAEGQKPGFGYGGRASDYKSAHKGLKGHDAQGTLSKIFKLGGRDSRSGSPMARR

B1: Synthesized biotinylated peptide P3, TYGGTFTDYLYNWVK (Bio) (peptide)
peptide: TYGGTFTDYLYNWVK
modifications: also: C-terminal Lys-biotin
notes: source: synthetic peptide (Shanghai Ruifu Chemical Co., Ltd.)
In the case of B1, the binding result is reported as “binds”.
